In the DeepSol protein solubility set:

Assay: soluble on expression in E. coli; label from the status in PepcDB or PDB records
For “MGSDKIHHHHHHMATIDLIVLGIVKQQPKSAYDIQKAVEYRNISRWVKISTPSIYKKVIQLEQKGYIESKTVKNGKMPEKAVYSLTELGETHFLDLMFDTSSKPINILLDFNAVIVNLNSLTPEKQKLCLNNIEENVQELKKTIEENISIKTEVPETAKAVLEQQLVLAQALETWINSLKDNTGN”, the “soluble on expression in E. coli” value was “not soluble”. For “MGSDKIHHHHHHMKNYKIVAIGDNVCDKYLSRGKMYPGGQCINTCVYGKMNGAETAYIGKYGNDEVAECVQNTLKEIGIDDSHCRHYEGENGFALVTLKNADRVFLGSNKGGIAKEHSYNFDENDFEYIKKFDLIYTNLNSYIEDNLKELHATGVPIAYDFSMRWTDEYLLKVCPYIDVAILSCAHLTAEEREKEMKKVQNYGVKIVLGTIGEDGSYVLYNGDFLYTSAIMAANIIDTMGAGDSYFSTFLCSLLQTSETGKLVEGTKESMKIRLESAMKSGAIFAANVCGMEGAFGYGVPIQGKTEI”, the “soluble on expression in E. coli” value was “not soluble”. With “MSLAKPKVIVPMVTPLRGGSVDKNAASWLASRLSESGVDGVFVPGTTGEWYLLDPHERAEAFFAVASSAIAGLRLVAGVSGYRPEESYRLAEEAAGHGAHAVMAVPPIYFRPSTDFLREFYGEIKRRAGGLPTYIYIFPERMGYTLAVEQVESLVEAGVVDGIKATVTDAAYIAGLAAVKERNPEFEVLAGGLEMLVHTSLSGGDGVVDAYSNVAPKLAVELAESLEKGSVERVAGLQGRVLKLSRILGKRSLPAVLKAVLHVLGAPITGEVRKPLKPLTQPEANATANALCTSYRDYLLPGEGHHHHHH” the “soluble on expression in E. coli” value was “soluble”. For “MAELQMLLEEEIPGGRRALFDSYTNLERVADYCENNYIQSADKQRALEETKAYTTQSLASVAYLINTLANNVLQMLDIQASQLRRMESSINHISQTVDIHKEKVARREIGILTTNKNTSRTHKIIAPANLERPVRYIRKPIDYTILDDIGHGVKVSTQNMKMGGLPRTTPPTQKPPSPPMSGKGTLGRHSPYRTLEPVRPPVVPNDYVPSPTRNMAPSQQSPVRTASVNQRNRTYSSSGSSGGSHPSSRSSSRENSGSGSVGVPIAVPTPSPPSVFPGHPVQFYSMNRPASRHTPPTIGGSLPYRRPPSITSQTSLQNQMNGGPFYSQNPVSLAPPPPSILQVTPQLPLMGFVARVQENISDTPPPPPPVEEPVFDESPPPPPPPEDYEEEEAAVVEYSDPYAEEDPPWAPRSYLEKVVAIYDYTKDKEDELSFQEGAIIYVIKKNDDGWYEGVMNGVTGLFPGNYVESIMHYSE”, the “soluble on expression in E. coli” value was “soluble”. In the case of “MKLELSYSDHLQLSESLNELGQTTRITQLEPGEGKYTMSFKQSTGIALAEIQSTQPLLYEGWGTTWSVDFNWITPTCHLNDPFGYCEGYEMKETSLGGFNTLNTSPGNSWGKYSNNCSSTACMLDKNILMKMLKECNAAQAIDNLSKARGLDVSSESLYQLKKLTRKDLVRGIMNPTKYYDLIVACLEGGDKRGYRKGLTKNYRLLGEIVQLSHDSRRMSSPMTLSDVCQYLDTGQASLYRVCQDYFGMGIIEMMTQIRLEEARRALLMFKQNEKNHALTVRDVALGYGFKHQGRFSRRYFTSFGELPSQTLDRSQEL”, the “soluble on expression in E. coli” value is reported as “not soluble”. For “VDQFISPEQLQGVIYTDGELQADEMTLEIAELLQSAGPWGQHFPEPLFEGQCRILQQRILAGKHLKLMIQFNDRFELYDAIWFNVDLRTFPDLSIKHAQIVYKLDINEFRGNKNIQLRVESLIPL”, the “soluble on expression in E. coli” value was “not soluble”. In the case of “MNESERKIVEEFQKETGINFKNEELLFRALCHSSYANEQNQAGRKDVESNEKLEFLGDAVLELFVCEILYKKYPEAEVGDLARVKSAAASEEVLAMVSRKMNLGKFLFLGKGEEKTGGRDRDSILADAFEALLAAIYLDQGYEKIKELFEQEFEFYIEKIMK”, the “soluble on expression in E. coli” value is reported as “not soluble”. For “MAHHHHHHMRKPGRKIVYVPDDDAQFLGSMSDPLPPRVSDLLRLKSPSMSDNGHAETGSNGTTGSPGYESIGNELLVSYGGYTLADGSGTLHPPTTRRNGAQLYKSLRKCCRFLRASLSDSMAPKLETDSESSWSCPSFCSSDPTSSSEYSDVSPQRGRRRAAKQANEQTGYNAMIVVQLRRLLHKRGLSTCGIKKVLVARLEQSDMQLSKSKEEGEEQKEQEELDGSAGECTKTERSEDVCSASCGNVSGRVTAAGPTSMLSSLLSFGSRLFRASTGSVSEGGHVSGLKRRRSV”, the “soluble on expression in E. coli” value was “not soluble”. With “MGSSHHHHHHSQDPLVPRGSGSDYIIKEKTVLLQKKDSEGFGFVLRGAKAQTPIEEFTPTPAFPALQYLESVDEGGVAWRAGLRMGDFLIEVNGQNVVKVGHRQVVNMIRQGGNTLMVKVVMVTRHPDMDEA” the “soluble on expression in E. coli” value was “soluble”.
